Substrate: CC(=O)Oc1ccc([N+](=O)[O-])cc1
Assay: purified protein
Type: biochemical, Caulobacter vibrioides
Settings: 40 mM phosphate buffer pH 7.4, 37 °C, 0.2 μM HfsH

B1: HfsH (Caulobacter vibrioides CB15) (protein)
chain: MPMEFEKVDAYEPDRSLKGKLRRRLIRLAHRRPAKVALERPMVSFSFDDAPATACEAGARALEARGLRGTYYFAAGLTGRDGPMGRYATGEDARRLHEAGHEIACHTYSHLDCGQSSQTETLADVDRNAESLAAWGAGDPVSFAYPYGDVAAPAKTALSGRFKTLRALHHGLITDGADLNQTPAVGIEGEDGETVAKAWLDKAKARKAWLILYTHDVAGQPSQWGCTTEALERLIDRALADGFDVVTVAEGSRRIGL
With B1 the Km was 11.74 mM.
